Assay results reported in PMC8349896 (Molecular cell, 2021).

Experiments:
[1] = molecular target: the molecule itself; test: SEC
[2] = molecular target: T1, bacteriophage T7 ejection protein gp15, full length (bacteriophage T7, UniProt P03725 1-747); test: native gel or EMSA
T1 sequence (looked up): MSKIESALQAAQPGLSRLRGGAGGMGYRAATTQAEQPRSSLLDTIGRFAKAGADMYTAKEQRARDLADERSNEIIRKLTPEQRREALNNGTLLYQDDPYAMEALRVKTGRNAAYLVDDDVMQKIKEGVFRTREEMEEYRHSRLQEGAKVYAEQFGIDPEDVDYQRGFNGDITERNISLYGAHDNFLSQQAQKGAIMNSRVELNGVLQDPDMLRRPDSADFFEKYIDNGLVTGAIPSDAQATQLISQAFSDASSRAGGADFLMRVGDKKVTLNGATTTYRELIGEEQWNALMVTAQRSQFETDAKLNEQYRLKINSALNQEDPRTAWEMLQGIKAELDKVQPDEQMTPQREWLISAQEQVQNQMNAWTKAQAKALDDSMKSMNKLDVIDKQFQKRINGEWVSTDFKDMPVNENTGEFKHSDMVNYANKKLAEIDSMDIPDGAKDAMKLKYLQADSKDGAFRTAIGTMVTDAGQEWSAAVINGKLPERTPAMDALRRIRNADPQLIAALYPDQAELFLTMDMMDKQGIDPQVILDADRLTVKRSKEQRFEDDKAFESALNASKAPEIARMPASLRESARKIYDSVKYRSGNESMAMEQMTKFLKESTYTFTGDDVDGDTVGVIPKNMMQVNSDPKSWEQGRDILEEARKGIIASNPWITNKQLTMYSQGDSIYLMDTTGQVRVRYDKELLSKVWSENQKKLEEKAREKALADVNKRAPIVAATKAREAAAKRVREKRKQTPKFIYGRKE

[3] = molecular target: T2, gp16-N (bacteriophage T7, UniProt P03726 1-228); test: EMSA
T2 sequence: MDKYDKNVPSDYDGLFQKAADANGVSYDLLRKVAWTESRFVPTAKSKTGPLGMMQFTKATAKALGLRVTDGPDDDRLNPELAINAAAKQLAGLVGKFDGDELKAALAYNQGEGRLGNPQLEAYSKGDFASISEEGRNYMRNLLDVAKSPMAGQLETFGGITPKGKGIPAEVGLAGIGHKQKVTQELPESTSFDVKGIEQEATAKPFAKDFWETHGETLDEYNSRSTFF

[4] = molecular target: T3, gp16-C (bacteriophage T7, UniProt P03726 275-1318); test: EMSA
T3 sequence: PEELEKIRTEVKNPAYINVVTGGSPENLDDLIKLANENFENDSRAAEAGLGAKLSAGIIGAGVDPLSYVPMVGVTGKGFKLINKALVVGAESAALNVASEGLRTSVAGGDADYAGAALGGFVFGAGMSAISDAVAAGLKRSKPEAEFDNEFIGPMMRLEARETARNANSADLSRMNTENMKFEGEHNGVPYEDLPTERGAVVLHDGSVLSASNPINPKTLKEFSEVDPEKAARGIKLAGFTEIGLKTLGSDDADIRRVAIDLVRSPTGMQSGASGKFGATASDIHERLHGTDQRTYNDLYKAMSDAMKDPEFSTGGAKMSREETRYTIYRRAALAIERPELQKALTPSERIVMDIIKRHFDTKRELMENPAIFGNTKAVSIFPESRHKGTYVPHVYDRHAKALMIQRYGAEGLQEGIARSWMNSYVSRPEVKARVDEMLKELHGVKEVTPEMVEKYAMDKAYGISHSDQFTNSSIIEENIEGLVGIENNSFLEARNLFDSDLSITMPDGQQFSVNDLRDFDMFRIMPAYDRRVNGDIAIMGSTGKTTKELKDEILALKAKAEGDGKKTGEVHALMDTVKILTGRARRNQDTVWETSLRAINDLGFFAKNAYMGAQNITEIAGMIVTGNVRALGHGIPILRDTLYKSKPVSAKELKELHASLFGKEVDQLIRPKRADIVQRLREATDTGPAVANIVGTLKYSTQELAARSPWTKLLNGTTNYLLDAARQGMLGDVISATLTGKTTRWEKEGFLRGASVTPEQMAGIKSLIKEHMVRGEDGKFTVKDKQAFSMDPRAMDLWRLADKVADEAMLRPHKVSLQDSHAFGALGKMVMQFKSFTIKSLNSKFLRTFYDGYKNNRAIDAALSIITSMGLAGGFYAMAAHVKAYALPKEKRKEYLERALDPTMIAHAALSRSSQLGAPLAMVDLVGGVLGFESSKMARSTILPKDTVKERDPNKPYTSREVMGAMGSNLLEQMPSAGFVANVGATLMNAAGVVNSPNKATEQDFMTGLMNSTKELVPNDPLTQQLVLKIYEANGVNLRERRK

B1: bacteriophage T7 ejection protein gp14 (natural protein, UniProt P03724 1-196, looked up)
chain: MCWAAAIPIAISGAQAISGQNAQAKMIAAQTAAGRRQAMEIMRQTNIQNADLSLQARSKLEEASAELTSQNMQKVQAIGSIRAAIGESMLEGSSMDRIKRVTEGQFIREANMVTENYRRDYQAIFAQQLGGTQSAASQIDEIYKSEQKQKSKLQMVLDPLAIMGSSAASAYASGAFDSKSTTKAPIVAAKGTKTGR
B1: binds [1].

B2: gp16-N (bacteriophage T7 gp16 residues 1-228) (domain or fragment, UniProt P03726 1-228, looked up)
chain: MDKYDKNVPSDYDGLFQKAADANGVSYDLLRKVAWTESRFVPTAKSKTGPLGMMQFTKATAKALGLRVTDGPDDDRLNPELAINAAAKQLAGLVGKFDGDELKAALAYNQGEGRLGNPQLEAYSKGDFASISEEGRNYMRNLLDVAKSPMAGQLETFGGITPKGKGIPAEVGLAGIGHKQKVTQELPESTSFDVKGIEQEATAKPFAKDFWETHGETLDEYNSRSTFF
B2: binds [2].

B3: Cy3-dsDNA 24-mer (dsDNA)
DNA 1: GCACTGCAGTAACTTGTCAGTCAT
DNA 2: ATGACTGACAAGTTACTGCAGTGC
B3: no binding [3]; binds [4].
